Experimental data from publication PMC3025062.

Biological target: cis-3-chloroacrylic acid dehalogenase (native)
Assay: crystal structure

Substance: cis-3-chloroacrylic acid dehalogenase (native) (enzyme)
- stoichiometry N: 3
